Test results reported in PMC2804306 (Biopolymers, 2008).

Target: Human MMP-12(ΔC) (human, UniProt P39900 106-263)
Assay: enzyme inhibition kinetics

Sequence of Human MMP-12(ΔC) (P39900 106-263, stated change not applied): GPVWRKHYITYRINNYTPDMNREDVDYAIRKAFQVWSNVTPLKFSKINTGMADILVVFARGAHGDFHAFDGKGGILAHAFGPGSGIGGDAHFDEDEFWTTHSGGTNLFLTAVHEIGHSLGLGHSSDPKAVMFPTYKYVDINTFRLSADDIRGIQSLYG

B1: N-TIMP-1, N-terminal inhibitory domain of tissue inhibitor of metalloproteinases 1 (active form, free alpha-amino group of Cys1) (domain or fragment)
chain: not shown
  Ki: ~1.5 nM
  stoichiometry N: 1.05 molar equivalents
